Changes are numbered by the printed parent chain. Each block holds one binder with its values, some of them ahead of it.
What was measured:
Assay in all cases: ELISA on coated NKG2D-Fc;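 note: titrated NKG2D binders added to plates coated with human, mouse or cynomolgus NKG2D ectodomain–human IgG1 Fc fusions, detected by HRP anti-human kappa antibody with TMB, absorbance at 450 nm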
[1] = target: T1, mouse recombinant NKG2D-Fc (mouse; human, UniProt O54709 90-232)
T1 construct: extracellular domain; also called recombinant mouse NKG2D-Fc; Mouse NKG2D-Fc-biotin; not shown: human IgG1 Fc domain
T1 sequence (looked up): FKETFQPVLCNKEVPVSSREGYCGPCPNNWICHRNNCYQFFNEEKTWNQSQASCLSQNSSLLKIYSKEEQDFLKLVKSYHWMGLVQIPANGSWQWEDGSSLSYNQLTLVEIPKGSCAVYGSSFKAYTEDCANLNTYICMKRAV

[2] = target: T2, human recombinant NKG2D-Fc (human, UniProt P26718 73-216)
T2 construct: extracellular domain; also called recombinant human NKG2D-Fc; NKG2D-Fc fusion protein; not shown: human IgG1 Fc domain
T2 sequence (looked up): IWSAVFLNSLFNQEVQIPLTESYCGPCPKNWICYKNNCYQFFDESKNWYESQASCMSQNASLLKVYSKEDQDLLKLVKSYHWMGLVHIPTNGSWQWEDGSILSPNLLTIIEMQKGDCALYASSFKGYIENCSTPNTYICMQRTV

[3] = target: T3, cynomolgus recombinant NKG2D-Fc (cynomolgus; human, UniProt P61252 73-216)
T3 construct: extracellular domain; also called cynomolgus NKG2D-Fc; not shown: human IgG1 Fc domain
T3 sequence (looked up): T2 sequence (looked up) with D43N, T133I

binding result [1]: binds
binding result [2]: binds
B1: ADI-29443 (antibody, V domains shown)
VH: QLQLQESGPGLVKPSETLSLTCTVSGGSISSSSYYWGWIRQPPGKGLEWIGSIYYSGSTYYNPSLKSRVTISVDTSKNQFSLKLSSVTAADTAVYYCARGSDRFHPYFDYWGQGTLVTVSS
VL: EIVLTQSPATLSLSPGERATLSCRASQSVSRYLAWYQQKPGQAPRLLIYDASNRATGIPARFSGSGSGTDFTLTISSLEPEDFAVYYCQQFDTWPPTFGGGTKVEIK
notes: also called F43

binding result [1]: binds
binding result [2]: binds
binding result [3]: binds
B2: ADI-27705 (antibody, V domains shown)
VH: QVQLQQWGAGLLKPSETLSLTCAVYGGSFSGYYWSWIRQPPGKGLEWIGEIDHSGSTNYNPSLKSRVTISVDTSKNQFSLKLSSVTAADTAVYYCARARGPWSFDPWGQGTLVTVSS
VL: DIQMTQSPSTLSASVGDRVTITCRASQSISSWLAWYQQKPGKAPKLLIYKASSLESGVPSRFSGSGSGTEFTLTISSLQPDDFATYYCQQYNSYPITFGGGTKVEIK

binding result [1]: binds
binding result [2]: binds
binding result [3]: binds
B3: ADI-29403 (antibody, V domains shown)
VH: B2 VH
VL: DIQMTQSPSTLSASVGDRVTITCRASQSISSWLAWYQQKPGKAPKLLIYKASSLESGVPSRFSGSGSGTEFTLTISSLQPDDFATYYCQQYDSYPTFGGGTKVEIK

binding result [1]: binds
binding result [2]: binds
binding result [3]: binds
B4: ADI-27724 (antibody, V domains shown)
VH: B2 VH
VL: not shown

binding result [1]: binds
binding result [2]: binds
binding result [3]: binds
B5: ADI-29424 (antibody, V domains shown)
VH: B2 VH
VL: DIQMTQSPSTLSASVGDRVTITCRASQSISSWLAWYQQKPGKAPKLLIYKASSLESGVPSRFSGSGSGTEFTLTISSLQPDDFATYYCQQYDSFITFGGGTKVEIK

binding result [1]: binds
binding result [2]: binds
binding result [3]: binds
B6: ADI-29426 (antibody, V domains shown)
VH: B2 VH
VL: B5 VL with S30G, D92H, I95P

binding result [1]: binds
binding result [2]: binds
binding result [3]: binds
B7: ADI-29419 (antibody, V domains shown)
VH: B2 VH
VL: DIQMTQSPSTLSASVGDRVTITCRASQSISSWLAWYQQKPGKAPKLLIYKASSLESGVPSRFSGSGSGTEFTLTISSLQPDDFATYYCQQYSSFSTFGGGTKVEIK

binding result [1]: binds
binding result [2]: binds
binding result [3]: binds
B8: ADI-29399 (antibody, V domains shown)
VH: B2 VH
VL: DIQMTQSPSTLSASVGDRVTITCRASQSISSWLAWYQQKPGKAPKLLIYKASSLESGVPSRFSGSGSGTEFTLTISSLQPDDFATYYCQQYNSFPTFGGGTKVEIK

binding result [1]: binds
binding result [2]: binds
binding result [3]: binds
B9: ADI-29421 (antibody, V domains shown)
VH: B2 VH
VL: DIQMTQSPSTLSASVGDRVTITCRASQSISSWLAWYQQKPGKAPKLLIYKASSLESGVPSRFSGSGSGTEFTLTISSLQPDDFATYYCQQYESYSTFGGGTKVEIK

binding result [1]: binds
binding result [2]: binds
binding result [3]: binds
B10: ADI-29447 (antibody, V domains shown)
VH: B2 VH
VL: B5 VL with S93T
notes: also called F47

binding result [1]: binds
binding result [2]: binds
binding result [3]: binds
B11: ADI-29429 (antibody, V domains shown)
VH: B2 VH
VL: DIQMTQSPSTLSASVGDRVTITCRASQSIGSWLAWYQQKPGKAPKLLIYKASSLESGVPSRFSGSGSGTEFTLTISSLQPDDFATYYCQQYELYSYTFGGGTKVEIK

binding result [1]: binds
binding result [2]: binds
binding result [3]: binds
B12: ADI-29405 (antibody, V domains shown)
VH: B2 VH
VL: B5 VL with D92G, I95P

binding result [1]: binds
binding result [2]: binds
binding result [3]: binds
B13: ADI-29425 (antibody, V domains shown)
VH: B2 VH
VL: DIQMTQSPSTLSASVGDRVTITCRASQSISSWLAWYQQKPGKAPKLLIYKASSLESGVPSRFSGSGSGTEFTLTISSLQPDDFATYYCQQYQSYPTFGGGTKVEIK

binding result [1]: binds
binding result [2]: binds
binding result [3]: binds
B14: ADI-29401 (antibody, V domains shown)
VH: B2 VH
VL: B5 VL with S30G, S93I, F94Y, I95P

binding result [1]: binds
binding result [2]: binds
binding result [3]: binds
B15: ADI-27743 (antibody, V domains shown)
VH: B2 VH
VL: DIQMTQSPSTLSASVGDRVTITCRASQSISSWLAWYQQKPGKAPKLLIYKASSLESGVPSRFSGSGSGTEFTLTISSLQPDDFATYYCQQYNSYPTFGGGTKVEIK

binding result [1]: binds
binding result [2]: binds
binding result [3]: binds
B16: ADI-29404 (antibody, V domains shown)
VH: B2 VH
VL: B5 VL with Q89E, F94Y, I95P
notes: also called F04

binding result [1]: binds
binding result [2]: binds
binding result [3]: binds
B17: ADI-29407 (antibody, V domains shown)
VH: B2 VH
VL: B5 VL with D92Q, I95P

binding result [1]: binds
binding result [2]: binds
binding result [3]: binds
B18: ADI-27740 (antibody, V domains shown)
VH: B2 VH
VL: B5 VL with S30G, D92H, I95Y
notes: also called A40

binding result [1]: binds
binding result [2]: binds
binding result [3]: binds
B19: ADI-28226 (antibody, V domains shown)
VH: B2 VH
VL: B11 VL with G30S, E92G, L93S, Y94F, S95P, Y96I
notes: also called C26

binding result [1]: binds
binding result [2]: binds
binding result [3]: binds
B20: ADI-27741 (antibody, V domains shown)
VH: B2 VH
VL: B5 VL with S30G, Y91S, D92N, F94Y, I95Y

binding result [1]: binds
binding result [2]: binds
binding result [3]: binds
B21: ADI-27727 (antibody, V domains shown)
VH: QVQLVQSGAEVKKPGSSVKVSCKASGGTFSSYAISWVRQAPGQGLEWMGGIIPIFGTANYAQKFQGRVTITADESTSTAYMELSSLRSEDTAVYYCARGDSSIRHAYYYYGMDVWGQGTTVTVSS
VL: not shown

Reference: patent US20200002436A1 (DRAGONFLY THERAPEUTICS, published 2020)
